For one substance, change in diffusion coefficient (%) and Dc2 value as percent of Dc1 value results are on record in patent US20160116468A1.

Assay [1] has as its target endogenous EGFR expressed in COS7 cells. Description: diffusion coefficient change of endogenous EGFR (labelled Fab probe), COS7 cells.
For assay [2] the target is unchanged. Description: diffusion coefficient of endogenous EGFR after against before cetuximab, COS7 cells.
For assay [3] the target is unchanged. Description: diffusion coefficient change of endogenous EGFR (Alexa Fluor 647 Fab of mAb 199.12 as probe) in a COS7 cell, 20 µg/ml cetuximab.

Consider cetuximab (antibody), for which the change in diffusion coefficient (%) in assay [1] and in assay [3] was 40% in each case. In addition, the Dc2 value as percent of Dc1 value in assay [2] amounted to 60%.
